These results are taken from patent EP4538285A1 (Chineo Medical Technology Co., Ltd., dated 2025).

B1: Camrelizumab (antibody, V domains shown)
VH: EVQLVESGGGLVQPGGSLRLSCAASGFTFSSYMMSWVRQAPGKGLEWVATISGGGANTYYPDSVKGRFTISRDNAKNSLYLQMNSLRAEDTAVYYCARQLYYFDYWGQGTTVTVSS
VL: DIQMTQSPSSLSASVGDRVTITCLASQTIGTWLTWYQQKPGKAPKLLIYTATSLADGVPSRFSGSGSGTDFTLTISSLQPEDFATYYCQQVYSIPWTFGGGTKVEIK
B2: Sintilimab (antibody, V domains shown)
VH: QVQLVQSGAEVKKPGSSVKVSCKASGGTFSSYAISWVRQAPGQGLEWMGLIIPMFDTAGYAQKFQGRVAITVDESTSTAYMELSSLRSEDTAVYYCARAEHSSTGTFDYWGQGTLVTVSS
VL: DIQMTQSPSSVSASVGDRVTITCRASQGISSWLAWYQQKPGKAPKLLISAASSLQSGVPSRFSGSGSGTDFTLTISSLQPEDFATYYCQQANHLPFTFGGGTKVEIK
B3: Toripalimab (antibody, V domains shown)
VH: QGQLVQSGAEVKKPGASVKVSCKASGYTFTDYEMHWVRQAPIHGLEWIGVIESETGGTAYNQKFKGRVTITADKSTSTAYMELSSLRSEDTAVYYCAREGITTVATTYYWYFDVWGQGTTVTVSS
VL: DVVMTQSPLSLPVTLGQPASISCRSSQSIVHSNGNTYLEWYLQKPGQSPQLLIYKVSNRFSGVPDRFSGSGSGTDFTLKISRVEAEDVGVYYCFQGSHVPLTFGQGTKLEIKR
B4: Seq No.4-RFc (PD-1 variant SEQ ID NO: 4 fused to rabbit IgG Fc) (Fc fusion)
chain: PGWFLDSPDRPWNPPTFSPALLVVTEGDNATFTCSFSNTSESFVLNWYRMSPSNQTDKLAAFPWMFCFPGQDCRFRVTQLPNGRDFHMSVVRARRNDSGTYLCGAISLSTPVWIKESLRAELRVTERRAEVPTAH
notes: Signal peptide 1-20 left out; also called variant 3; not shown: rabbit IgG Fc (RFc) of vector pcDNA3.4-RFc
B5: Seq No.2-RFc (PD-1 variant SEQ ID NO: 2 fused to rabbit IgG Fc) (Fc fusion)
chain: PGWFLDSPDRPWNPPTFSPALLVVTEGDNATFTCSFSNTSESFVLNWYRMSPSNQTDKLAAFPEDRSQPGQDCRFRVTQLPNGRDFHMSVVRARRNDSGTYLCGAISLSTPVWIKESLRAELRVTERRAEVPTAH
notes: signal peptide 1-20 left out; also called variant 1; not shown: rabbit IgG Fc (RFc) of vector pcDNA3.4-RFc
B6: Seq No.5-RFc (PD-1 variant SEQ ID NO: 5 fused to rabbit IgG Fc) (Fc fusion)
chain: PGWFLDSPDRPWNPPTFSPALLVVTEGDNATFTCSFSNTSESFVLNWYRMSPSNQTDKLAAFPEDFRNCTQDCRFRVTQLPNGRDFHMSVVRARRNDSGTYLCGAISLSTPVWIKESLRAELRVTERRAEVPTAH
notes: Signal peptide 1-20 left out; also called variant 4; not shown: rabbit IgG Fc (RFc) of vector pcDNA3.4-RFc
B7: Seq No.7-RFc (PD-1 variant SEQ ID NO: 7 fused to rabbit IgG Fc) (Fc fusion)
chain: PGWFLDSPDRPWNPPTFSPALLVVTEGDNATFTCSFSNTSESFVLNWYRMSPSNQTDKLAAFPEDRINRSQDCRFRVTQLPNGRDFHMSVVRARRNDSGTYLCGAISLSTPVWIKESLRAELRVTERRAEVPTAH
notes: Signal peptide 1-20 left out; also called variant 6; not shown: rabbit IgG Fc (RFc) of vector pcDNA3.4-RFc
B8: Seq No.6-RFc (PD-1 variant SEQ ID NO: 6 fused to rabbit IgG Fc) (Fc fusion)
chain: PGWFLDSPDRPWNPPTFSPALLVVTEGDNATFTCSFSNTSESFVLNWYRMSPSNQTDKLAAFPEDFFTVSQDCRFRVTQLPNGRDFHMSVVRARRNDSGTYLCGAISLSTPVWIKESLRAELRVTERRAEVPTAH
notes: Signal peptide 1-20 left out; also called variant 5; 56#-16; not shown: rabbit IgG Fc (RFc) of vector pcDNA3.4-RFc
B9: Seq No.3-RFc (PD-1 variant SEQ ID NO: 3 fused to rabbit IgG Fc) (Fc fusion)
chain: PGWFLDSPDRPWNPPTFSPALLVVTEGDNATFTCSFSNTSESFVLNWYRMSPSNQTDKLAAFPFLFNLPGQDCRFRVTQLPNGRDFHMSVVRARRNDSGTYLCGAISLSTPVWIKESLRAELRVTERRAEVPTAH
notes: Signal peptide 1-20 left out; also called variant 2; not shown: rabbit IgG Fc (RFc) of vector pcDNA3.4-RFc

The first assay concerns the target T1, Seq No.1-RFc (wild-type PD-1 fused to rabbit IgG Fc) (human; rabbit, UniProt Q15116 21-155).
T1 construct: also called PD1-RFc; not shown: rabbit IgG Fc (RFc) of vector pcDNA3.4-RFc
The experiment in a line: SPR, Biacore T200; PD1-RFc mobile phase, antibody stationary phase. Background: In SPR one partner is held on a chip, and binding of the other changes the refractive index at the surface.
B1: binding was characterised by a dissociation constant (Kd) of 0.229 nM; the koff – broadly, the rate constant with which the complex falls apart – was found to be 0.000389 s⁻¹; the kon – broadly, the second-order rate constant of association – turned out to be 1.7e+06 M⁻¹ s⁻¹.
Turning to B2, the Kd (as a rule, the concentration at which binding is half-saturated) is 0.00141 nM; the koff amounted to 5.11e-06 s⁻¹; the kon stood at 3.62e+06 M⁻¹ s⁻¹.
On the same counts, the results for B3 are 0.178 nM, 0.00115 s⁻¹ and 6.47e+06 M⁻¹ s⁻¹.

For the next assay, the target named is T2, Tilelizumab.
T2 construct: Biotin-labelled in flow cytometry; also called Tevimbra; Tislelizumab
The assay is described as above.
Turning to B4, the dissociation constant Kd was found to be 2.94 nM, the koff worked out at 0.00203 s⁻¹ and the kon was 691000 M⁻¹ s⁻¹.
On the same counts, the results for B5 are 0.085 nM, 0.000174 s⁻¹ and 2.05e+06 M⁻¹ s⁻¹.
In turn, B6 displayed a Kd of 0.567 nM, a koff of 0.0003 s⁻¹ and a kon of 530000 M⁻¹ s⁻¹.
Take B7: the Kd was found to be 0.0492 nM, the koff is 0.000109 s⁻¹ and the kon was found to be 2.21e+06 M⁻¹ s⁻¹.
As to B8, binding was put at a Kd of 0.315 nM, the koff was determined as 0.000836 s⁻¹ and the kon was found to be 2.66e+06 M⁻¹ s⁻¹.
Taken in the same sequence, the figures for B9 were 1.78 nM, 0.00105 s⁻¹ and 588000 M⁻¹ s⁻¹.

A further assay deals with B3. In words: SPR, Biacore T200.
B5: the Kd amounted to 0.395 nM.
